In patent publication US20050079559:

Target: bacterial recombinant GST-Smad3 (UniProt P84022)
Sequence (P84022 whole entry, looked up): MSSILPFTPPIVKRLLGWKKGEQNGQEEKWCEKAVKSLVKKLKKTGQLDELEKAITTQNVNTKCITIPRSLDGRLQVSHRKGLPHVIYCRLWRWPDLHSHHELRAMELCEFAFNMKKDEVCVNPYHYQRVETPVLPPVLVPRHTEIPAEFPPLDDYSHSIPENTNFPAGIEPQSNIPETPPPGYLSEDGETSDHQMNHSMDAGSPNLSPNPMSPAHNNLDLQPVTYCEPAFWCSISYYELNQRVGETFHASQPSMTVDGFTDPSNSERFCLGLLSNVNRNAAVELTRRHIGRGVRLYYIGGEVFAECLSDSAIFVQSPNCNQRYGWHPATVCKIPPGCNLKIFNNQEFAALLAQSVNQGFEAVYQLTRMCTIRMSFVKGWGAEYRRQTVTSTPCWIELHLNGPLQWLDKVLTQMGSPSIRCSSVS

Row | Substance | phosphorylation of recombinant Smad3 in an in vitro kinase assay, detected by immunoblotting
1 | phosphorylated (active) JNK | the linker region of Smad3 was directly phosphorylated by p38 and JNK
2 | phosphorylated (active) p38 | the linker region of Smad3 was directly phosphorylated by p38 and JNK
